In patent US9028810B2, “Composition for inducing migration of neural stem cells containing periostin as effective ingredient” (Ajou University Industry—Academic Cooperations Foundatin, priority 2010, dated 2015):

Tests used:
[1] = tested on: neural stem cells; assay: In vitro migration assay using ERK pathway and CDK5 pathway inhibitors; assay type: cell-based, human; settings: 12 hours
Source text: It has been reported that, in the development of the central nervous system, neural stem cells migrate from the subventricular zone to cortex through radial glial cells using the ERK (extracellular signal regulated kinase) and CDK5 signaling pathways, and in the neuronal migration, DCX participated in nucleus translocation, neucleokinesis (Niethammer et al., 2000).
Cultured neural stem cells were detached with 0.05% trypsin, washed with DMEM medium and re-suspended in DMEM medium, after which 5×10^4 cells were inoculated into an upper chamber (Costar Transwell) in 200 μl of 10% FBS-containing DMEM medium.
After 12 hours, in order to determine the number of cells that migrated from the upper chamber through a 8-μm porous polycarbonate membrane to the lower portion of the membrane in response to the stimulation of the lower chamber, the migrated neural stem cells were stained with hematoxylin & eosin and counted.

[2] = tested on: DCX and ERK in neural stem cells; assay: Transwell membrane immunostaining of ERK and DCX in migrated cells; assay type: cell-based, human; settings: periostin 10 μg/ml, 12 hours; for location of DCX in migrated cells: with or without inhibitor; for cell migration: VEGF 10 ng/ml
Description: To analyze the ERK and DCX affection of migrated cells, transwell membrane immunostaining was performed using ERK and DCX antibodies (Cell signaling tech., Danver, Mass.).
Cultured neural stem cells were detached with 0.05% trypsin, washed with DMEM medium and re-suspended in DMEM medium, after which 5×10^4 neural stem cells were inoculated into an upper chamber (Costar Transwell) in 200 μl of 10% FBS-containing DMEM medium. After one day, a lower chamber was treated with each of VEGF (10 ng/ml), periostin (10 μg/ml) and periostin+inhibitor. After 12 hours, the changes in locations of DCX and ERK in the cells that migrated from the upper chamber through the 8-μm porous polycarbonate membrane to the lower portion of the membrane in response to the stimulation of the lower chamber were examined.
Next, the membrane was washed with PBS, blocked twice with a solution of 5% goat serum and 0.5% triton X-100 in PBS for 30 minutes, and then washed with a solution of 0.5% BSA (bovine serum albumin) in PBS for 15 minutes. After this, the membrane was incubated with a 1:500 dilution of goat polyclonal human DCX antibody and a 1:1000 dilution of rabbit polyclonal human ERK antibody at 4° C. overnight, and then washed twice with PBS for 15 minutes each time. Next, the membrane was incubated with biotin-conjugated anti-rabbit secondary antibody at room temperature for 1 hour and washed trice with PBS, after which […] was detected by staining the membrane using an avidin-biotin kit (Vector, Calif.) and a diaminbenzidin peroxidase (DAB) kit (Vector, Calif.).

[3] = tested on: HB1.F3 human neural stem cell line; assay: Boyden chamber migration assay, HB1.F3 neural stem cells; assay type: cell-based; settings: for increase in ability to induce the migration of neural stem cells compared to not treated: Boyden chamber
Description: (§1) In order to examine the effect of periostin on the migration of neural stem cells, a Boyden chamber assay was performed using two human neural stem cell lines (HB1.F3 and HB1.F5), thereby determining whether human neural stem cells migrated in response to periostin in vitro. For controls, VEGF (vascular endothelial growth factor) was used as a positive control, and FBS-DMEM medium was used as a negative control.
(§2) Specifically, cultured neural stem cells were detached with 0.05% trypsin, washed with DMEM medium, and then re-suspended in DMEM medium, after which 5×10^4 cells seeded into an upper chambers (Costar Transwell) in 200 μl of 10% FBS-containing DMEM medium. After one day, a lower chamber was treated with various concentrations of periostin or VEGF. The periostin was used at concentrations of 5, 10 and 20 μg/ml, and the VEGF was used at concentrations of 5, 10 and 20 ng/ml. 10% FBS-DMEM medium was used as a negative control. After 12 hours, in order to determine the number of cells that migrated from the upper chamber through a 8-μm porous polycarbonate membrane to the lower portion of the membrane in response to the stimulation of the lower chamber, the migrated neural stem cells were stained with hematoxylin and then counted.
(§3) After one day, a lower chamber was treated with 10 μg/ml of periostin, and after 4 hours, 8 hours, 12 hours and 24 hours, the migrated cells were stained with H&E (hematoxylin & eosin), counted and photographed (Olympus BX51, Japan).

[4] = tested on: PI3K/AKT signaling pathway (PI3K-AKT-mTOR-CDK5-Nudel1, PAK1); assay: Western blotting of FAK / PI3K-AKT signaling pathway after periostin treatment; assay type: cell-based, human
Description: The FAK signaling pathway is linked to kinases as its downstream pathways and transduces signals. With respect to cell migration, the PI3K/AKT signaling pathway (PI3K-AKT-mTOR-CDK5-Nudel1, PAK1) is frequently used as the downstream pathway of FAK, and thus the following experiment was performed in order to determine the kinase activation pathway.
First, neural stem cells treated with periostin were washed with PBS and lysed with PMSF and a protease inhibitor in RIPA buffer (0.5% sodiumdeoxycholate, 0.1% sodiumdodecyl sulfate, 1% NP-40, PBS). Protein concentration was determined by a Bio-Rad-DC protein assay (Bio-Rad, Hercules, Calif., US). The samples were adjusted to the same protein concentration, after 30 μg of each protein was separated on SDS-PAGE gel. Then, protein samples were transferred to an immobilon-P membrane (Millipore Corp., MA, US). For protein detection, the membrane was incubated in TBS-T 5% skim milk at room temperature for 30 minutes and washed three times with TBS-T for 15 minutes each time. Then, the membrane was incubated with primary antibodies of FAK, pFAK, PAK and pPAK (1:1000 dilution; Epitomics) in 5% BSA-TBS-T overnight at 4° C. Then, the membrane was washed three times with TBS-T for 15 minutes each time. Then, the membrane was incubated with secondary anti-rabbit antibody (1:2000 dilution; Zymed, Calif., USA) at room temperature for 1 hour. The membrane was washed three times with TBS-T, after which the antibody binding protein was added to an ECL Western blotting detection solution (Amersham Pharmacia Biotechnology, buckinghamahire, UK) for 1 minute and exposed to Kodak X-ray firm for detection. The Western blotting analysis was performed at various time points between 0 and 12 hours after treatment with periostin.

[5] = tested on: HB1.F5 human neural stem cell line; assay: Boyden chamber migration assay, HB1.F5 neural stem cells; assay type: cell-based
Description: as §1
as §2, with “The periostin was used at concentrations of 5, 10 and 20 μg/ml, and the VEGF was used at concentrations of 5, 10 and 20 ng/ml. 10% FBS-DMEM medium was used as a negative control.” left out
as §3

[6] = neural stem cells, Western blotting 0-12 hours

COc1cccc(-c2cc(=O)c3ccccc3o2)c1N [PD98059]
inhibition of migration of neural stem cells induced by periostin ([1]; 20 nM inhibitor with periostin in lower chamber): 40% | migration of neural stem cells in control group not treated with periostin ([1]; 20 nM inhibitor): inhibited

CC[C@H](CO)Nc1nc(NCc2ccccc2)c2ncn(C(C)C)c2n1 [roscovitine, reference compound]
location of DCX in migrated cells [2]: the concentration of DCX around the nuclei was inhibited

vascular endothelial growth factor [VEGF, reference compound]
cell migration [2]: induced cell migration | increase in ability to induce the migration of neural stem cells compared to not treated ([3]; HB1.F3 cells, 12 hours): 25% | concentration at which ability of VEGF to induce migration was the highest ([3]; tested 5, 10 and 20 ng/ml, 12 hours): 5 ng/mL

B1: periostin (protein)
chain: NNHYDKILAHSRIRGRDQGPNVCALQQILGTKKKYFSTCKNWYKKSICGQKTTVLYECCPGYMRMEGMKGCPAVLPIDHVYGTLGIVGATTTQRYSDASKLREEIEGKGSFTYFAPSNEAWDNLDSDIRRGLESNVNVELLNALHSHMINKRMLTKDLKNGMIIPSMYNNLGLFINHYPNGVVTVNCARIIHGNQIATNGVVHVIDRVLTQIGTSIQDFIEAEDDLSSFRAAAITSDILEALGRDGHFTLFAPTNEAFEKLPRGVLERIMGDKVASEALMKYHILNTLQCSESIMGGAVFETLEGNTIEIGCDGDSITVNGIKMVNKKDIVTNNGVIHLIDQVLIPDSAKQVIELAGKQQTTFTDLVAQLGLASALRPDGEYTLLAPVNNAFSDDTLSMDQRLLKLILQNHILKVKVGLNELYNGQILETIGGKQLRVFVYRTAVCIENSCMEKGSKQGRNGAIHIFREIIKPAEKSLHEKLKQDKRFSTFLSLLEAADLKELLTQPGDWTLFVPTNDAFKGMTSEEKEILIRDKNALQNIILYHLTPGVFIGKGFEPGVTNILKTTQGSKIFLKEVNDTLLVNELKSKESDIMTTNGVIHVVDKLLYPADTPVGNDQLLEILNKLIKYIQIKFVRGSTFKEIPVTVYKPIIKKYTKIIDGVPVEITEKETREERIITGPEIKYTRISTGGGETEETLKKLLQEEVTKVTKFIEGGDGHLFEDEEIKRLLQGDTPVRKLQANKKVQGSRRRLREGRSQ
notes: induces migration of neural stem cells
time for which Nudel1 activation was maintained ([4]; activated when PAK1 activation decreased): 12 h | time after treatment at which AKT and mTOR were activated [4, 6]: 1 h | time after treatment at which PAK1 started to be activated [4, 6]: 1 h | time after treatment from which FAK was highly activated [4, 6]: 30 min | time up to which CDK5 activation was maintained [4, 6]: 12 h | time up to which PAK1 activation was maintained [4, 6]: 6 h | cell migration [2]: induced cell migration | location of DCX in migrated cells [2]: DCX was concentrated around the nuclei | migration of neural stem cells over time ([3]; HB1.F3, 10 μg/ml periostin, 4, 8, 12 and 24 hours): increased with time | increase in induction of migration relative to that by VEGF ([3]; HB1.F3 cells): about 4 times | increase in ability to induce the migration of neural stem cells compared to not treated ([3]; HB1.F3 cells, 12 hours): about 100% | concentration at which ability of periostin to induce migration was the highest ([3]; tested 5, 10 and 20 μg/ml, 12 hours): 10 µg/mL | migration of neural stem cells over time ([5]; HB1.F5, 10 μg/ml periostin, 4, 8, 12 and 24 hours): increased with time | migration of neural stem cells upon treatment ([5]; HB1.F5 cells, 12 hours): increased upon treatment with periostin
